Data taken from patent US20190002534A1 (UNIVERSITY OF MASSACHUSETTS, published 2019).

Tests used:
Assay in all cases: cell-based or functional assay
[1] = molecular target: T1, G glycoprotein of rabies virus street isolate PR Mong (rabies virus, isolate PR Mong …)
[2] = molecular target: T2, G glycoprotein of rabies virus street isolate AK fox (rabies virus, isolate AK fox (Fox, …))
[3] = molecular target: T3, G glycoprotein of rabies virus street isolate RAC (rabies virus, isolate RAC (Raccoon, …))
[4] = molecular target: T4, G glycoprotein of rabies virus street isolate NC SK (rabies virus, isolate NC SK (Skunk, …))
[5] = molecular target: T5, G glycoprotein of rabies virus street isolate CO Bat EF6938 (rabies virus, isolate CO Bat EF6938 …)
[6] = molecular target: T6, G glycoprotein of rabies virus street isolate C1434 (rabies virus, isolate C1434 …)
[7] = molecular target: T7, G glycoprotein of rabies virus street isolate WA Bat (rabies virus, isolate WA Bat …)
[8] = molecular target: T8, G glycoprotein of rabies virus street isolate Bat EF (rabies virus, isolate Bat EF (Eptesicus …))
[9] = molecular target: T9, G glycoprotein of rabies virus street isolate Myotis (rabies virus, isolate Myotis (Myotis …))
[10] = molecular target: T10, G glycoprotein of rabies virus street isolate Sonora Dog (rabies virus, isolate Sonora Dog (Dog, …))
[11] = molecular target: T11, G glycoprotein of rabies virus street isolate TX SK 4380 (rabies virus, isolate TX SK 4380 …)
[12] = molecular target: G glycoprotein of rabies virus street isolate CASK (rabies virus, isolate CASK (Skunk, U.S. …))
[13] = molecular target: T1, G glycoprotein of rabies virus street …; remark: listed apart in the source
[14] = molecular target: T2, G glycoprotein of rabies virus street …; remark: listed apart in the source
[15] = molecular target: T3, G glycoprotein of rabies virus street …; remark: listed apart in the source
[16] = molecular target: T4, G glycoprotein of rabies virus street …; remark: listed apart in the source
[17] = molecular target: T5, G glycoprotein of rabies virus street …; remark: listed apart in the source
[18] = molecular target: T6, G glycoprotein of rabies virus street …; remark: listed apart in the source
[19] = molecular target: T7, G glycoprotein of rabies virus street …; remark: listed apart in the source
[20] = molecular target: T8, G glycoprotein of rabies virus street …; remark: listed apart in the source
[21] = molecular target: T9, G glycoprotein of rabies virus street …; remark: listed apart in the source
[22] = molecular target: G glycoprotein of rabies virus street isolate 1625 Bat (rabies virus, isolate 1625 Bat …)
[23] = molecular target: G glycoprotein of rabies virus street isolate TN410 (rabies virus, isolate TN410 (Lasiurus …))
[24] = molecular target: G glycoprotein of rabies virus street isolate TN132 (rabies virus, isolate TN132 (Lasiurus …))
[25] = molecular target: G glycoprotein of rabies virus isolate Texas coyote 323R (rabies virus, isolate Texas coyote 323R)
[26] = molecular target: G glycoprotein of rabies virus street isolate AZ fox 2400 (rabies virus, isolate AZ fox 2400 (Fox …))
[27] = molecular target: G glycoprotein of rabies virus street isolate TX Fox (rabies virus, isolate TX Fox (Fox …))
[28] = molecular target: G glycoprotein of rabies virus street isolate CABat (rabies virus, isolate CABat (Myotis …))
[29] = molecular target: G glycoprotein of rabies virus street isolate AZ Bat LC (rabies virus, isolate AZ Bat LC …)
[30] = molecular target: G glycoprotein of rabies virus street isolate FLBat 769 (rabies virus, isolate FLBat 769 …)
[31] = molecular target: G glycoprotein of rabies virus street isolate TN269 (rabies virus, isolate TN269 (Lasiurus …))
[32] = molecular target: G glycoprotein of rabies virus street isolate TN33 (rabies virus, isolate TN33 (Lasiurus …))
[33] = molecular target: G glycoprotein of rabies virus street isolate VA1340 (rabies virus, isolate VA1340 (Lasiurus …))
[34] = molecular target: G glycoprotein of rabies virus street isolate VA399 (rabies virus, isolate VA399 (Lasiurus …))
[35] = molecular target: T10, G glycoprotein of rabies virus street …; remark: listed apart in the source
[36] = molecular target: T11, G glycoprotein of rabies virus street …; remark: listed apart in the source
[37] = molecular target: G glycoprotein of rabies virus street isolate Gray fox (Test B) (rabies virus, isolate Gray fox (Fox …))
[38] = molecular target: G glycoprotein of rabies virus street isolate Raccoon (Florida) (rabies virus, isolate Raccoon (Florida))
[39] = molecular target: G glycoprotein of rabies virus street isolate Skunk (north-central) (Test B) (rabies virus, isolate Skunk …)
[40] = molecular target: G glycoprotein of rabies virus street isolate Skunk south-central (Test B) (rabies virus, isolate Skunk …)
[41] = molecular target: G glycoprotein of rabies virus street isolate Eastern pipistrelle (Test B) (rabies virus, isolate Eastern …)
[42] = molecular target: G glycoprotein of rabies virus street isolate Eptesicus fuscus (Nebraska) (Test B) (rabies virus, isolate Eptesicus fuscus …)
[43] = molecular target: G glycoprotein of rabies virus street isolate Lasiurus cinereus (Arkansas) (Test B) (rabies virus, isolate Lasiurus cinereus …)
[44] = molecular target: G glycoprotein of rabies virus street isolate SW E fuscus (Test B) (rabies virus, isolate SW E fuscus …)
[45] = molecular target: G glycoprotein of rabies virus street isolate Tadarida (Test B) (rabies virus, isolate Tadarida sp. …)

B1: anti-rabies virus human monoclonal antibody 2B10 (antibody, V domains shown)
VH: EVQLVQSGGGLVHPGGSLRLSCAGSGFTFSYFAMHWVRQAPGKGLEWVSTIGTGGGTYYADSVKGRFTISRDNAKNSLYLQMNSLRAEDMAVYYCARDNALRSFDWLFYSFDYWGQGTLVTVSS
VL: EIVLTQSPGTLSLSPGERATLSCRASQSISSSYLAWYQQKPGQAPRLLIYGASSRATGIPDRFSGSGSGTDFTLTISRLEPEDFAVYYCQRYGSSYTFGQGTKLEIK
[1]
  EC50 neutralization by RFFIT: 0.006 µg/mL
[2]
  EC50 neutralization by RFFIT: 0.004 µg/mL
[3]
  EC50 neutralization by RFFIT: 0.03 µg/mL
[4]
  EC50 neutralization by RFFIT: 0.004 µg/mL
[5]
  EC50 neutralization by RFFIT: 0.01 µg/mL
[6]
  EC50 neutralization by RFFIT: 0.008 µg/mL
[7]
  EC50 neutralization by RFFIT: 0.009 µg/mL
[8]
  EC50 neutralization by RFFIT: 0.015 µg/mL
[9]
  EC50 neutralization by RFFIT: 0.008 µg/mL
[10]
  EC50 neutralization by RFFIT: 0.006 µg/mL
[11]
  EC50 neutralization by RFFIT: 0.005 µg/mL
[12]
  EC50 neutralization by RFFIT (Test A): 0.48 µg/mL
[13]
  EC50 neutralization by RFFIT (Test A): 0.006 µg/mL
[14]
  EC50 neutralization by RFFIT (Test A): 0.004 µg/mL
[15]
  EC50 neutralization by RFFIT (Test A): 0.03 µg/mL
[16]
  EC50 neutralization by RFFIT (Test A): 0.004 µg/mL
[17]
  EC50 neutralization by RFFIT (Test A): 0.01 µg/mL
[18]
  EC50 neutralization by RFFIT (Test A): 0.008 µg/mL
[19]
  EC50 neutralization by RFFIT (Test A): 0.009 µg/mL
[20]
  EC50 neutralization by RFFIT (Test A): 0.015 µg/mL
[21]
  EC50 neutralization by RFFIT (Test A): 0.008 µg/mL
[22]
  EC50 neutralization by RFFIT (Test A): 83 µg/mL
[23]
  EC50 neutralization by RFFIT (Test A): 222 µg/mL
[24]
  EC50 neutralization by RFFIT (Test A): > 2400 µg/mL
[25]
  EC50 neutralization by RFFIT (Test A): 1.57 µg/mL
[26]
  EC50 neutralization by RFFIT (Test A): 0.043 µg/mL
[27]
  EC50 neutralization by RFFIT (Test A): 0.02 µg/mL
[28]
  EC50 neutralization by RFFIT (Test A): 0.004 µg/mL
[29]
  EC50 neutralization by RFFIT (Test A): 422 µg/mL
[30]
  EC50 neutralization by RFFIT (Test A): > 2400 µg/mL
[31]
  EC50 neutralization by RFFIT (Test A): > 2400 µg/mL
[32]
  EC50 neutralization by RFFIT (Test A): 1620 µg/mL
[33]
  EC50 neutralization by RFFIT (Test A): > 2400 µg/mL
[34]
  EC50 neutralization by RFFIT (Test A): 864 µg/mL
[35]
  EC50 neutralization by RFFIT (Test A): 0.006 µg/mL
[36]
  EC50 neutralization by RFFIT (Test A): 0.005 µg/mL
[37]
  EC50 neutralization by RFFIT (Test B): < 0.0002 µg/mL
[38]
  EC50 neutralization by RFFIT (Test B): 0.005 µg/mL
[39]
  EC50 neutralization by RFFIT (Test B): 0.005 µg/mL
[40]
  EC50 neutralization by RFFIT (Test B): 0.002 µg/mL
[41]
  EC50 neutralization by RFFIT (Test B): 0.033 µg/mL
[42]
  EC50 neutralization by RFFIT (Test B): 0.014 µg/mL
[43]
  EC50 neutralization by RFFIT (Test B): 117 µg/mL
[44]
  EC50 neutralization by RFFIT (Test B): 0.005 µg/mL
[45]
  EC50 neutralization by RFFIT (Test B): 0.011 µg/mL

B2: anti-rabies virus human monoclonal antibody 17C7 (antibody, V domains shown)
VH: QVQLVESGGGVVQPGRSLRLSCAASGFTFSTYAMHWVRQAPGKGLEWVAVVSYDGRTKDYADSVKGRFTISRDNSKNTLYLQMNSLRTEDTAVYFCARERFSGAYFDYWGQGTLVTVSS
VL: EIVLTQSPATLSLSPGERATLSCRASQSVSSYLAWYQQKPGQAPRLLIYDASNRATGIPARFSGSGSGTDFTLTISSLEPEDFAVYSCQQRNNWPPTFGGGTKVEIK
[1]
  EC50 neutralization by RFFIT: 0.007 µg/mL
[2]
  EC50 neutralization by RFFIT: 0.005 µg/mL
[3]
  EC50 neutralization by RFFIT: 0.027 µg/mL
[4]
  EC50 neutralization by RFFIT: 0.8 µg/mL
[5]
  EC50 neutralization by RFFIT: 0.182 µg/mL
[6]
  EC50 neutralization by RFFIT: 0.154 µg/mL
[7]
  EC50 neutralization by RFFIT: 0.87 µg/mL
[8]
  EC50 neutralization by RFFIT: 0.512 µg/mL
[9]
  EC50 neutralization by RFFIT: 0.004 µg/mL
[10]
  EC50 neutralization by RFFIT: 0.006 µg/mL
[11]
  EC50 neutralization by RFFIT: 0.006 µg/mL
[12]
  EC50 neutralization by RFFIT (Test A): 0.006 µg/mL
[13]
  EC50 neutralization by RFFIT (Test A): 0.007 µg/mL
[14]
  EC50 neutralization by RFFIT (Test A): 0.005 µg/mL
[15]
  EC50 neutralization by RFFIT (Test A): 0.027 µg/mL
[16]
  EC50 neutralization by RFFIT (Test A): 0.8 µg/mL
[17]
  EC50 neutralization by RFFIT (Test A): 0.182 µg/mL
[18]
  EC50 neutralization by RFFIT (Test A): 0.154 µg/mL
[19]
  EC50 neutralization by RFFIT (Test A): 0.87 µg/mL
[20]
  EC50 neutralization by RFFIT (Test A): 0.512 µg/mL
[21]
  EC50 neutralization by RFFIT (Test A): 0.004 µg/mL
[22]
  EC50 neutralization by RFFIT (Test A): 80 µg/mL
[23]
  EC50 neutralization by RFFIT (Test A): 8 µg/mL
[24]
  EC50 neutralization by RFFIT (Test A): 414 µg/mL
[25]
  EC50 neutralization by RFFIT (Test A): 0.01 µg/mL
[26]
  EC50 neutralization by RFFIT (Test A): 0.211 µg/mL
[27]
  EC50 neutralization by RFFIT (Test A): 0.023 µg/mL
[28]
  EC50 neutralization by RFFIT (Test A): 0.006 µg/mL
[29]
  EC50 neutralization by RFFIT (Test A): 10 µg/mL
[30]
  EC50 neutralization by RFFIT (Test A): 80.2 µg/mL
[31]
  EC50 neutralization by RFFIT (Test A): 400 µg/mL
[32]
  EC50 neutralization by RFFIT (Test A): 9.11 µg/mL
[33]
  EC50 neutralization by RFFIT (Test A): 199 µg/mL
[34]
  EC50 neutralization by RFFIT (Test A): 21.9 µg/mL
[35]
  EC50 neutralization by RFFIT (Test A): 0.006 µg/mL
[36]
  EC50 neutralization by RFFIT (Test A): 0.006 µg/mL
[37]
  EC50 neutralization by RFFIT (Test B): 0.002 µg/mL
[38]
  EC50 neutralization by RFFIT (Test B): 1000 µg/mL
[39]
  EC50 neutralization by RFFIT (Test B): 7.36 µg/mL
[40]
  EC50 neutralization by RFFIT (Test B): 0.0004 µg/mL
[41]
  EC50 neutralization by RFFIT (Test B): 143 µg/mL
[42]
  EC50 neutralization by RFFIT (Test B): 0.002 µg/mL
[43]
  EC50 neutralization by RFFIT (Test B): 10.4 µg/mL
[44]
  EC50 neutralization by RFFIT (Test B): 675 µg/mL
[45]
  EC50 neutralization by RFFIT (Test B): 1.05 µg/mL
